Assay results: paper PMC9253517 (The Journal of Experimental Medicine, 2022)

Assays:
[1] = biological target: T1, SARS-CoV-2 Wuhan-Hu-1 RBD (SARS-CoV-2, Wuhan-Hu-1 (GenBank …, UniProt P0DTC2)); experiment: cell-based or functional assay
[2] = biological target: T1, SARS-CoV-2 Wuhan-Hu-1 RBD; experiment: BLI; settings: both partners purified

Binder | neutralisation IC50, Wuhan-Hu-1 pseudovirus [1] [µg/mL] | binding result [2]
JR042 (antibody, V domains shown) VH: EVQLVESGGGLIQPGGSLRLSCVASGVTVSSNYMSWVRQAPGKGLEWVSVIYPGGTTYYADSVKGRFTISRDNSKNTLYLQMTSLRAEDTAVYYCARGGDYHYGMDVWGQGTTVTVSS VL: DIQLTQSPSFLSASVGDRVTITCRASQGISSYLAWYQQKPGKAPKLLIYAASTLQSGVPSRFSGSGSGTEFTLTISSLQPEDFATYYCQLLNSYPPTFGQGTKLEIK | 0.0209 | binds
JR043 (antibody, V domains shown) VH: QVQLVQSGAEVKKPGASVKVSCKASGYTFTRNYMHWVRQAPGQGLEWMGIINPSGGSTSYAQKFQGRVTMTRDTSTSTVYMELSSLRSEDTAVYYCARVDSSSWSHCDYWGQGTLVTVSS VL: DIQLTQSPSSLSASVGDRVTITCRASQSISTYLNWYQQNPGKAPKLLIYGASNLQSGVPSRFSGSGSGTDFTLTISSLQPEDFATYYCQQSYSTLEITFGQGTRLEIK | 0.00587 | binds
JR212 (antibody, V domains shown) VH: QVQLVQSGAEVKKPGSSVKVSCKASGGTFSNYAISWVRQAPGQGLEWMGGIIPLFGTTNYAQKFQGRVTITADESTSTAYMELSSLRSEDTAMYYCASYSSGYHLVTDYWGQGTLVTVSS VL: EIVLTQSPGTLSLSPGERATLSCRASQSVTSSYLAWYQQKPGQAPRLLIYGASSRATGIPDRFSGSGSGTDFTLTISRLEPEDFAVYYCQQYGTSRTFGQGTKVEIK | 0.178 | binds
JR233 (antibody, V domains shown) VH: QVQRVQSGAEVKKPGSSVKVSCKASGGTFSSYAFSWVRQAPGQGLEWMGGIIPILRIADYAQKFQGRVTITADKSTSTAFMELSSLRSEDTAVYYCARGQIELVPAARVDYFDYWGQGTLVTVSS VL: DIQLTQSPSSLSASVGDRVTITCRASQSISSYLNWYQQKPGKAPKLLIYAASSLQSGVPSRFSGSGSGTDFTLTISSLQPEDFATYYCQQSYTTSFGPGTKVDIK | 0.00933 | binds
JR328 (antibody, V domains shown) VH: EVQLVESGGGLIQPGGSLRLSCAASGVIVSRNYMSWVRQAPGKGLEWVAVIYSGGSTFYADSVKGRFTISRDDSKNTLFLQMNALRAEDTAVYYCARDGDYYGMDVWGRGTTVTVSS VL: DIQLTQSPSFLSASVGDRVTITCRASQGISNYLAWYQQKPGTAPRLLIYAAFTLQSGVPSRFSGSGSGTEFTLTISSLQPEDFATYYCQQLNTYPGFTFGPGTKVDIK | 0.0167 | 
JR309 (antibody, V domains shown) VH: EVQLVESGGGLVQPGRSLRLSCAASGFTFDDYAIHWVRQAPGKGLEWVSGSSWNSGTIGYADSVKGRFTISRDNAKNSLYLQMNSLRAEDTALYYCAKDWGTGDYNSYYFDYWGQGTLVTVSS VL: SYELTQPPSVSVAPGKTARITCGGNNIGSKSVHWYQQKPGQAPVVVVYDDSDRPSGNPERFSGSNSGNTATLTIRRVEAGDEADYYCQVWDSNSDQYVFGTGTKVTVL | 0.0155 | binds
JR041 (antibody, V domains shown) VH: EVQLVESGGGLVQPGRSLRLSCAASGFTFDDYAMYWVRQAPGKGLEWVSGISWNSGSIGYADSVKGRFTISRDNAKNSLYLQMNSLRAEDTALYYCAKDISYHTGTIDYWGQGTLVTVSS VL: QSALTQPASVSGSPGQSITISCTGTSSDIGGYNYVSWYQQHPGKAPKLMIYDVSNRPSGVSNRFSGSKSGNTASLTISGLQAEDEADYYCSSYTSSSTLGVGGGTKLTVL | 0.0547 | binds
JR173 (antibody, V domains shown) VH: EVQLVESGGGLVQPGRSLRLSCAASGFTFDDYAMHWVRQAPGKGLEWVSGISWNSGRKGYADSVKGRFTISRDNAKNSLHLQMNSLRAEDTALYYCAKDIQEAIEVSSIGFDYWGQGTLVTVSS VL: QSVLTQPPSVSGAPGQRVTISCTGSSSNIGAGYDVHWYQQLPGTAPKLLIYGNSNRPSGVPDRFSGSKSGTSASLAITGLQAEDEADYYCQSYDSSLSGYAVFGGGTQLTVL | 0.0166 | binds
JR310 (antibody, V domains shown) VH: EVQLVESGGGLIQPGGSLRLSCAASGFTVSSNYMSWVRQAPGKGLEWVSVIYSGGSTYYADSVKGRFTISRDNSKNTLYLQMNSLRAEDTAVYYCARGDPSDYYYYGMDVWGQGTTVTVSS VL: QSVLTQPPSVSGAPGQRVTISCTGSSSNIGAGYDVHWYQQLPGTAPKLLIYGNSNRPSGVPDRFSGSKSGTSASLAITGLQAEDEADYYCQSYDSSLSGSGVFGTGTKVTVL | 0.219 | binds
JR088 (antibody, V domains shown) VH: QVQLQQSGPGLVKPSQTLSLTCAISGDSVSSDSAAWNWIRQSPSRGLEWLGRTYYRSKWSNDYEVSVKSRITINPDTSKNQFSLQLNSVTPEDTAVYYCAKQQLVLDDAFDIWGQGTMVTVSS VL: QSALTQPRSVSGSPGQSVTISCTGTSSDVGGHNYVSWYEQHPGKAPKLMMYDVSKRPSGVPDRFSGSKSGNTASLTISGLQAEDEADYYCCSYAGSYIWVFGGGTKLTVL | 0.0381 | binds
JR215 (antibody, V domains shown) VH: QVQLVQSGAEVKKPGASVKVSCKASGYTFTGYYMHWVRQAPGQGLEWMGRINPNSGDTNFPQKFQGRVTMTRDTSISTAYMELSRLRSDDTAVYYCARDGVADFNYDYWGQGTLVTVSS VL: LTQPASVSGSPGQSITISCTGSSSDVGSYNLVSWYQQHPGKAPKLMIYEVSRRPSGVSNRFSGSKSGNTASLTISGLQAEDEADYYCCSYAGSSTWEVLFGGGTKLTVL | 0.0448 | binds
JR174 (antibody, V domains shown) VH: QVQLVQSGAEVKKPGSSVKVSCKASGGTFSSYAISWVRQAPGQGLEWMGGIIPIFGTAHYAQKFQGRVTITADESTSTAYMELSSLRSEDTAVYFCARDLGGIQLYLLAYWGQGTLVTVSS VL: EIVLTQSPVTLSLSPGERATLSCRASQSVSSTYLAWYQQKPGQAPRLLIYGASSRATGIPDRFSGSGSGTDFTLTISRLEPEDFAVYYCQQYVGSPGTFGQGTKVEIK | 0.0798 | binds
JR216 (antibody, V domains shown) VH: QLQLQESGPGLVKPSETLSLTCTVSGGSISSGSYFWGWIRQPPGKGLEWIGNIYNSGSTYYSPSLKSRVTISVNTSKNQFSLKMSSVTAADTAVYYCARQPWLRSQFDYWGQGTLVTVSS VL: NFMLTQPHSVSESPGKTVTISCTGSSGSIASNYVQWYQQRPGSAPTNVIYEDNQRPSGVPDRFSGSIDSSSNSASLTISGLKTEDEADYYCQSYDSSTVVFGGGTKLTVL | 0.0458 | binds
JR210 (antibody, V domains shown) VH: EVQLVESGGGLVQPGGSLRLSCAASGFTFSNYWMTWVRQAPGKGLEWVANIKQDGSEKYYVDSVKGRFTISRDNAKNSLYLQMNSLRAEDTAVYYCARDLAVAISWFDPWGQGTLVTVSS VL: NFMLTQPHSVSESPGKTVTMSCTRSSGSIASNYVQWYQQRPGSSPTTVIYEDNQRPSGVPDRFSGSIDSSSNSASLTISGLKTEDEADYYCHSYDSPRVVFGGGTKLTVL | 0.0897 | binds
JR092 (antibody, V domains shown) VH: QVQLVESGGGLVKPGGSLRLSCAASGFTFSDYYMSWIRQAPGKGLEWVSYSSSRGSIIHYADSVKGRFTISRDNAKNSLCLQMNSLRAEDTAVYYCARATTPYSGYSMWGQGTLVTVSS VL: NFMLTQPHSVSESPGKTVTISCTGSSGSIASNYVQWYQQRPGSAPTTVIYEDNQRPSGVPDRFSGSIDSSSNSASLTISGLKTEDEADYYCQSYDSSNWVFGGGTKLTVL | 0.109 | binds
JR177 (antibody, V domains shown) VH: QVQLVESGGGVVQPGRSLRLSCAASGFTLSSYAMHWVRQAPGKGLEWVALILYDGSNKYYADSVKGRFTISRDNSKNTVYLQMNSLRAEDTAVYYCARVRVWGRVVVAASFYYGMDVWGQGTTVTVSS VL: not shown | 0.00328 | binds
JR039 (antibody, V domains shown) VH: QLQLQESGPGLVKPSETLSLTCTVSGGSISSSSYYWGWIRQPPGKGLEWIGSIYYSGSTYYNPSLKSRVSISVDTSKNQFSLKLSSVTAADTAVYYCARPGPAYYDRSGYYRAEYFQRWGQGTLVTVSS VL: AIRMTQSPSSLSASVGDRVTITCQASQDISDYLSWYQQKPGKAPKLLIYDASNLETGVPSRFSGSGSGTDFTFTISSLQPEDIATYYCQQYDNLPLTFGGGTKVEIK | 0.0219 | binds
JR093 (antibody, V domains shown) VH: QVQLVQSGAEVKKPGSSVKVSCKASGGTFSSYAISWVRQAPGQGLEWMGRIVPILNIANYAQRFQGRVTITADKSTSTAYMELSSLRSEDTAVYYCASPGSLLLGERIDELQFDYWGQGTLVTVSS VL: not shown | 0.131 | binds
JR086 (antibody, V domains shown) VH: QVQLVQSGAEVKKPGASVKVSCKASGYTFTGYYMHWVRQAPGQGLEWMGWINPISGATNYAQKFQGGVTMTRDTSISTAYMELSRLRSDDTAVYYCARVNHIVVVTAIDPIYGMDVWGQGTTVTVSS VL: QSALTQPASVSGSPGQSITISCTGTSSDVGGYNYVSWYQQHPGKAPKLMIYEVSNRPSGVSNRFSGSKSGNTASLTISGLQAEDEADYYCSSYTSSSTLYYVFGTGTKVTVL | 0.0358 | binds
